Laboratory results as given in patent US20240141072A1 (published 2024).
Like-named read-outs stand apart in the source and are kept apart here.

T1: human DLL3 on DLL3-expressing tumor cell lines (human, UniProt Q9NYJ7 27-618)
T1 sequence: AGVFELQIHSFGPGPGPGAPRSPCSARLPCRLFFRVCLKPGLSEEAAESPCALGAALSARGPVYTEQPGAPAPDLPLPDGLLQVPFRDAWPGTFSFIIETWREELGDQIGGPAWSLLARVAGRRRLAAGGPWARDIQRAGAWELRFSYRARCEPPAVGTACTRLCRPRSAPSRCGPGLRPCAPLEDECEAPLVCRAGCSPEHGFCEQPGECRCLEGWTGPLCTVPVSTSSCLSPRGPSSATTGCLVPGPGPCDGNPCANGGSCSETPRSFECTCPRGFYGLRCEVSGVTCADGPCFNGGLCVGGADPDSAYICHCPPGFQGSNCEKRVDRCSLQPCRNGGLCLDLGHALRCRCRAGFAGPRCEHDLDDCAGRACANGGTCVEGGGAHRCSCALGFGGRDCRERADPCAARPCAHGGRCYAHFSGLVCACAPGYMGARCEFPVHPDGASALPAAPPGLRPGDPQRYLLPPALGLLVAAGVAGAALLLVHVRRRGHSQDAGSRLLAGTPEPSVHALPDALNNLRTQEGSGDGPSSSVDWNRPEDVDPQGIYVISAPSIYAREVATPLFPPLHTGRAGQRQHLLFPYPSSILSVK

T2: biotinylated human DLL3 protein expressed as a human IgG1 fusion protein (human, UniProt Q9NYJ7 27-492, limits assumed, biotinylated)
T2 sequence: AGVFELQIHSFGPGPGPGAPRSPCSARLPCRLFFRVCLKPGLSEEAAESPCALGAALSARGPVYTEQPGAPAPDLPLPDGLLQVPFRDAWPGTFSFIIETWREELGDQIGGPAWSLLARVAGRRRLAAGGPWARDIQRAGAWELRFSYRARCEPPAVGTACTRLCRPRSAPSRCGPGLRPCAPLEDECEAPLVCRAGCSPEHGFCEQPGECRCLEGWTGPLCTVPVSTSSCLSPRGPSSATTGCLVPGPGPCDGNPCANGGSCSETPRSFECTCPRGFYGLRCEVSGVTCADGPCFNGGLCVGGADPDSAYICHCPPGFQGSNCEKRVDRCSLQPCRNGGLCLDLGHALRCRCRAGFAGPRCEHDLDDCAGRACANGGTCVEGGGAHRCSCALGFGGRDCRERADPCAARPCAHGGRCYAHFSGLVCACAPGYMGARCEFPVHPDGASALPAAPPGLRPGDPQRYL

T3: cynomolgus DLL3 (cynomolgus, UniProt A0A2K5WSR1 27-490)
T3 construct: also called cyDLL3
T3 sequence: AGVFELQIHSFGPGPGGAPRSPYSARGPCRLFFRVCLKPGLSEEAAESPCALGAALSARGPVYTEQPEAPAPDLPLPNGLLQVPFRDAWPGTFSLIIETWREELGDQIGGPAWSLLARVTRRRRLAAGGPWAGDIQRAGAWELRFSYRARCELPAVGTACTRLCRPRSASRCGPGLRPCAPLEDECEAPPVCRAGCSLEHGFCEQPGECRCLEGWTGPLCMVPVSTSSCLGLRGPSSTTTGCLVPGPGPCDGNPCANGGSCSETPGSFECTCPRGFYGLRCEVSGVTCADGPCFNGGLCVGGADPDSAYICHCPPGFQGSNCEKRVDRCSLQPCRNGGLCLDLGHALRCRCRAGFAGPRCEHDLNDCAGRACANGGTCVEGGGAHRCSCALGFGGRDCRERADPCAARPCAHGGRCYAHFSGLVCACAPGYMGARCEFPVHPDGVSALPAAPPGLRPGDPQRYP


Assays:
[1] = biological target: T4, anti-DLL3 trispecific protein with DLL3 binding domain 51G10; assay: Octet BLI; biotinylated purified CHO trispecific on streptavidin tips; 60, 20, 6.67, 2.22 nM
T4 construct: trispecific, one chain

[2] = biological target: T5, anti-DLL3 trispecific protein with DLL3 binding domain 51F03; assay: as above
T5 construct: trispecific, one chain; also called 51F3

[3] = biological target: T6, anti-DLL3 trispecific protein with DLL3 binding domain 52B01; assay: as above
T6 construct: trispecific, one chain; also called 52B1

[4] = biological target: T7, anti-DLL3 trispecific protein with DLL3 binding domain 51G02; assay: as above
T7 construct: trispecific, one chain; also called 51G2

[5] = biological target: T8, anti-DLL3 trispecific protein with DLL3 binding domain 52D04; assay: as above
T8 construct: trispecific, one chain; same domain order as the TAC protein m79; also called 52D4

[6] = biological target: T9, anti-DLL3 trispecific protein with DLL3 binding domain 51H05; assay: as above
T9 construct: trispecific, one chain; also called 51H5

[7] = biological target: T10, anti-DLL3 trispecific protein with DLL3 binding domain 51A05; assay: as above
T10 construct: trispecific, one chain; also called 51A5

[8] = biological target: T11, anti-DLL3 trispecific protein containing the parental DLL3 binder DH6; assay: as above
T11 construct: trispecific, one chain

[9] = biological target: T12, anti-DLL3 trispecific protein with DLL3 binding sequence 51X5; assay: as above
T12 construct: trispecific, one chain

[10] = biological target: T13, anti-DLL3 trispecific protein with DLL3 binding domain 52C04; assay: as above
T13 construct: trispecific, one chain; also called 52C4

[11] = biological target: T1, human DLL3 on DLL3-expressing tumor …; assay: cell-based or functional assay
[12] = biological target: T1, human DLL3 on DLL3-expressing tumor …; assay: cell-based or functional assay; remark: listed apart in the source
[13] = biological target: T1, human DLL3 on DLL3-expressing tumor …; assay: cell-based or functional assay; remark: listed apart in the source
[14] = biological target: T2, biotinylated human DLL3 protein …; assay: Octet BLI, single 50 nM
Outline: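 Affinities reflect binding of the trispecific constructs, supplied as conditioned medium of known protein concentration rather than purified material, to immobilised human DLL3 fusion protein.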

[15] = biological target: T3, cynomolgus DLL3; assay: Octet BLI, single 60 nM
[16] = biological target: T2, biotinylated human DLL3 protein …; assay: Octet BLI, 60/20/6.67/2.22 nM
Method: Using the conditioned medium with known concentrations of the anti-DLL3 trispecific proteins, the binding affinities of the anti-DLL3 trispecific proteins toward human DLL3 protein were measured using a method where biotinylated version of human DLL3 protein were expressed as a human IgG1 fusion protein, and the binding affinity measurement was carried out in an Octet instrument with streptavidin tips.

T13 sequence (chain, as listed by the source): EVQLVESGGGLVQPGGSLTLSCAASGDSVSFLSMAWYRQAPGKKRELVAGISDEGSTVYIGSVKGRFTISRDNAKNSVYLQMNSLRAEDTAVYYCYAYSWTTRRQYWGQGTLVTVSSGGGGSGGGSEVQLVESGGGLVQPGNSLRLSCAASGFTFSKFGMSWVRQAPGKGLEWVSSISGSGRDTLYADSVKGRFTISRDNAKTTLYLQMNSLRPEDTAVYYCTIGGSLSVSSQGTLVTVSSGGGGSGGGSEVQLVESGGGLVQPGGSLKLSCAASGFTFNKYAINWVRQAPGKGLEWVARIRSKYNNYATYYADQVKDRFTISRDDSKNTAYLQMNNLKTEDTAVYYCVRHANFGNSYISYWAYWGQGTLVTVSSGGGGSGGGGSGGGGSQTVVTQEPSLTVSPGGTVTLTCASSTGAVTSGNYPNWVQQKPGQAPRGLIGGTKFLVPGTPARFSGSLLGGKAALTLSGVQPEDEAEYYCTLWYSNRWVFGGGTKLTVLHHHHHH
T5 sequence (chain, as listed by the source): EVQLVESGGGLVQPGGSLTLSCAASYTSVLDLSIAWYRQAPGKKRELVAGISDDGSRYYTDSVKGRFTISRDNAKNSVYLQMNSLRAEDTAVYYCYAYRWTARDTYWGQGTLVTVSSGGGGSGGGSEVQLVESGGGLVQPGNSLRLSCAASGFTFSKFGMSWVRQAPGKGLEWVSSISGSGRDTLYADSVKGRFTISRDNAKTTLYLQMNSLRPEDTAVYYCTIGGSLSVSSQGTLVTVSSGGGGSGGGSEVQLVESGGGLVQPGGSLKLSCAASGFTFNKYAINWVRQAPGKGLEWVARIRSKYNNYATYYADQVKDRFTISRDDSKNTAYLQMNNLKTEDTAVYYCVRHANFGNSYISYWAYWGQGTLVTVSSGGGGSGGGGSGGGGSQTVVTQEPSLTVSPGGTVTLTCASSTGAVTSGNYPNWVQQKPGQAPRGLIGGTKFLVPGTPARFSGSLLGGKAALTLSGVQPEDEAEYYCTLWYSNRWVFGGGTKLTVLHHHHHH
T7 sequence (chain, as listed by the source): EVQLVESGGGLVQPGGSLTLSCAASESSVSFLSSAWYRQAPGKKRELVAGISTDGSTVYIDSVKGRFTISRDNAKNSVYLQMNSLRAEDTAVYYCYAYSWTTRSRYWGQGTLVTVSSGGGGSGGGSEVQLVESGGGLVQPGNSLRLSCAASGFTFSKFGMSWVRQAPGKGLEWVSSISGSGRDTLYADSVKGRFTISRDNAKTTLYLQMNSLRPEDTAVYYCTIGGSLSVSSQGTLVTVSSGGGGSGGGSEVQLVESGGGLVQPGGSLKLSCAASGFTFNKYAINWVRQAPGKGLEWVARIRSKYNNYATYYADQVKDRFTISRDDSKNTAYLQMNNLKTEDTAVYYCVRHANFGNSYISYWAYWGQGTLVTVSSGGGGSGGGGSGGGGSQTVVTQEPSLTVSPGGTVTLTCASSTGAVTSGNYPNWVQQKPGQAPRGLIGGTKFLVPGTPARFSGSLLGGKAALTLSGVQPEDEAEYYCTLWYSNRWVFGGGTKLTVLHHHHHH
T11 sequence (chain, as listed by the source): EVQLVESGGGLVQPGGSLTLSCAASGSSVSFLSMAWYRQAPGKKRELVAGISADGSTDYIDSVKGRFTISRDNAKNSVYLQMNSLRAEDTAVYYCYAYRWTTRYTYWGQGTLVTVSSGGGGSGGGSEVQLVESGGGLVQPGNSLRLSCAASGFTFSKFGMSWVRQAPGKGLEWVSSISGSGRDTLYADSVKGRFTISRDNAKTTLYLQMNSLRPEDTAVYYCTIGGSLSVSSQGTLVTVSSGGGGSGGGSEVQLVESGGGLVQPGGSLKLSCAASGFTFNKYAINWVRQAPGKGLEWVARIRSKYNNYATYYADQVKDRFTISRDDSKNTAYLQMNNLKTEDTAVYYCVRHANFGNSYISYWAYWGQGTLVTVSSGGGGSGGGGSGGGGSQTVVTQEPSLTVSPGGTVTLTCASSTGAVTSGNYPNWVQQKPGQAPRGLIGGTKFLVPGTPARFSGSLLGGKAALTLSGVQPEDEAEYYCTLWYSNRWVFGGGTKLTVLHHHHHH
T6 sequence (chain, as listed by the source): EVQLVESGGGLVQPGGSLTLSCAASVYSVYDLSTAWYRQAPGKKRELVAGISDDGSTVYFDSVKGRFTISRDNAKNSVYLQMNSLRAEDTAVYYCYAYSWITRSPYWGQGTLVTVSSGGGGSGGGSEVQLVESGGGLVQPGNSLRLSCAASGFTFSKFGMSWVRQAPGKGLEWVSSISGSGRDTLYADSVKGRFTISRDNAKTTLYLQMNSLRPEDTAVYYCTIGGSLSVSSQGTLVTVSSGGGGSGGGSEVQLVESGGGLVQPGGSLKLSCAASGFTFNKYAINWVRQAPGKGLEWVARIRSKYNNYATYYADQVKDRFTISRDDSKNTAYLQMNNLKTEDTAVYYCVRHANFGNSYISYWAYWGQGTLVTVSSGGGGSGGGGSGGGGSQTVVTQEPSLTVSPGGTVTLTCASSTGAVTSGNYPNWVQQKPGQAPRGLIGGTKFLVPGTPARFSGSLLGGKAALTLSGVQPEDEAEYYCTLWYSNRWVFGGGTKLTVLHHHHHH
T4 sequence (chain, as listed by the source): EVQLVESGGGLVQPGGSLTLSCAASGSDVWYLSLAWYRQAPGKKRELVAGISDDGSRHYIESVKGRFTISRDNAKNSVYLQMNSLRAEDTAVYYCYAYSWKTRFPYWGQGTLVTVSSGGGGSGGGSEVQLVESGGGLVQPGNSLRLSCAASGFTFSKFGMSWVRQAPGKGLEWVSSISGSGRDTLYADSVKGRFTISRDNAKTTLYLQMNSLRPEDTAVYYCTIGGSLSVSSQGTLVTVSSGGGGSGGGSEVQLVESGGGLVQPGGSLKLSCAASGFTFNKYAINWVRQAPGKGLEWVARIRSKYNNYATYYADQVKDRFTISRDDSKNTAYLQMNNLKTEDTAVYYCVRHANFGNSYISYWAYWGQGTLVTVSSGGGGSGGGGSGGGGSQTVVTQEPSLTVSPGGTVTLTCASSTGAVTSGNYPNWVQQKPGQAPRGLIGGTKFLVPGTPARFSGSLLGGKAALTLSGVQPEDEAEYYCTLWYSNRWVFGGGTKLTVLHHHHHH
T12 sequence (chain, as listed by the source): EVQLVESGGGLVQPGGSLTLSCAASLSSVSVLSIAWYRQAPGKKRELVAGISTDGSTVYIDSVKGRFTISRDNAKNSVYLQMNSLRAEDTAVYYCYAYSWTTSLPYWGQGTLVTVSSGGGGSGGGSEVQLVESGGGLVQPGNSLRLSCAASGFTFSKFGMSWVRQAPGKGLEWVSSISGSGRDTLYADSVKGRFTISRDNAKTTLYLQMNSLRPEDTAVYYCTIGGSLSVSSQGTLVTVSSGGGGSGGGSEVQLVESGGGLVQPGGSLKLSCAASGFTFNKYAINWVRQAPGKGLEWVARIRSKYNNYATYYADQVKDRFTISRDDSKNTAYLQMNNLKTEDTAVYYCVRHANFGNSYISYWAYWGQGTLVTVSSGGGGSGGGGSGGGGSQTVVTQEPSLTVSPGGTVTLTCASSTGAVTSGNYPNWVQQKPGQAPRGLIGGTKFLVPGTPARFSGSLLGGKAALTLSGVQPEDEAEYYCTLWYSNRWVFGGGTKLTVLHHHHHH
T9 sequence (chain, as listed by the source): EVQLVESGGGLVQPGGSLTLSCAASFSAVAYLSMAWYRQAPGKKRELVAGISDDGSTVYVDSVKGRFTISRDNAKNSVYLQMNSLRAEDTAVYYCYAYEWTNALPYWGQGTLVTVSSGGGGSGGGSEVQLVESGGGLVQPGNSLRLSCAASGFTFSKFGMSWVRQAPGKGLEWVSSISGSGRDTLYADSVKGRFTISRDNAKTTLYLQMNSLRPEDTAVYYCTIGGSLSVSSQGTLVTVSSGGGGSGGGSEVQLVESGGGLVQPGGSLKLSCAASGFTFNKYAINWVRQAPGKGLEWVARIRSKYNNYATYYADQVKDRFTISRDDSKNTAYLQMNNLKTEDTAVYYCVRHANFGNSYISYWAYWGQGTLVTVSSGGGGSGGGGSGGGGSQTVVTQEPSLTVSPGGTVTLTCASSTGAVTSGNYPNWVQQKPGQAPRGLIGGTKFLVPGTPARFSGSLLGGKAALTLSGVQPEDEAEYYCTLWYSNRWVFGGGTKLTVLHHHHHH
T10 sequence (chain, as listed by the source): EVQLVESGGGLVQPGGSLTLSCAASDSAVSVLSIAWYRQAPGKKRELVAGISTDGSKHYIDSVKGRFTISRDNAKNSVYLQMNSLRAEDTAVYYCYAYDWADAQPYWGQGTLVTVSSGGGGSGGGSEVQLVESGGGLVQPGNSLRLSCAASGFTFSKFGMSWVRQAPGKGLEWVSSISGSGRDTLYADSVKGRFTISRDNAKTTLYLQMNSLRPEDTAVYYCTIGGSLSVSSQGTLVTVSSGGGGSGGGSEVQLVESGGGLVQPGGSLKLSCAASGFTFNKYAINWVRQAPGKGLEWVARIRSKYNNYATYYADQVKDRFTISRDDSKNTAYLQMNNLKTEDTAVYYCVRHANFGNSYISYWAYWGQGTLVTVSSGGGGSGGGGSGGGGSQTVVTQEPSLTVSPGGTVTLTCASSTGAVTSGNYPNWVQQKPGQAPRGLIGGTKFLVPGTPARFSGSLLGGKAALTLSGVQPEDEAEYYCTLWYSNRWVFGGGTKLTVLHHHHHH
T8 sequence (chain, as listed by the source): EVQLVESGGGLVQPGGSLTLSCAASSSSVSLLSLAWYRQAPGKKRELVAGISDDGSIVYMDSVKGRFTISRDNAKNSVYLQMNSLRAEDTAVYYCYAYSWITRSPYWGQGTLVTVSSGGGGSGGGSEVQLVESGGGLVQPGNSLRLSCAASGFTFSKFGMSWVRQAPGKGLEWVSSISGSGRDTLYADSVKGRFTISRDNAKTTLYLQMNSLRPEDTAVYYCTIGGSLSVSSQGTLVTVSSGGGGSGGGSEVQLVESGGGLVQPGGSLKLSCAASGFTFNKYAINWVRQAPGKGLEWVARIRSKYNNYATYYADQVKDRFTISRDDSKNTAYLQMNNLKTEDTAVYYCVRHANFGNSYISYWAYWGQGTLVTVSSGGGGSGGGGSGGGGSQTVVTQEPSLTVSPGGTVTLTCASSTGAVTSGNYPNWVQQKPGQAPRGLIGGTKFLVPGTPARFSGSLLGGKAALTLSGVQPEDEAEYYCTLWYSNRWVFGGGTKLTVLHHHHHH

Kd [1] [nM] | Kd [2] [nM] | Kd [3] [nM] | Kd [4] [nM] | Kd [5] [nM] | Kd [6] [nM] | Kd [7] [nM] | Kd [8] [nM] | Kd [9] [nM] | Kd [10] [nM] | DMS-153 TDCC EC50 [11] [nM] | DMS-153 TDCC EC50 [12] [nM] | fold increase in TDCC potency compared to the parental DLL3 binder DH43 [13] [fold] | Kd [14] [nM] | Kd [15] [nM] | Kd [16] [nM] | Binder
1.4 | 2 | 1.9 | 3.4 | 1.7 | 1.6 | 1.6 | 11 | 1.5 | 3 | – | – | – | – | – | – | cynomolgus DLL3 protein (Example 6) (ligand, also called cyDLL3) AGVFELQIHSFGPGPGGAPRSPYSARGPCRLFFRVCLKPGLSEEAAESPCALGAALSARGPVYTEQPEAPAPDLPLPNGLLQVPFRDAWPGTFSLIIETWREELGDQIGGPAWSLLARVTRRRRLAAGGPWAGDIQRAGAWELRFSYRARCELPAVGTACTRLCRPRSASRCGPGLRPCAPLEDECEAPPVCRAGCSLEHGFCEQPGECRCLEGWTGPLCMVPVSTSSCLGLRGPSSTTTGCLVPGPGPCDGNPCANGGSCSETPGSFECTCPRGFYGLRCEVSGVTCADGPCFNGGLCVGGADPDSAYICHCPPGFQGSNCEKRVDRCSLQPCRNGGLCLDLGHALRCRCRAGFAGPRCEHDLNDCAGRACANGGTCVEGGGAHRCSCALGFGGRDCRERADPCAARPCAHGGRCYAHFSGLVCACAPGYMGARCEFPVHPDGVSALPAAPPGLRPGDPQRYP
0.9 | 1.4 | 1.1 | 2 | 0.9 | 0.9 | 1.2 | 13.5 | 1 | 2.2 | – | – | – | – | – | – | human DLL3 protein (Example 6) (ligand, also called huDLL3) AGVFELQIHSFGPGPGPGAPRSPCSARLPCRLFFRVCLKPGLSEEAAESPCALGAALSARGPVYTEQPGAPAPDLPLPDGLLQVPFRDAWPGTFSFIIETWREELGDQIGGPAWSLLARVAGRRRLAAGGPWARDIQRAGAWELRFSYRARCEPPAVGTACTRLCRPRSAPSRCGPGLRPCAPLEDECEAPLVCRAGCSPEHGFCEQPGECRCLEGWTGPLCTVPVSTSSCLSPRGPSSATTGCLVPGPGPCDGNPCANGGSCSETPRSFECTCPRGFYGLRCEVSGVTCADGPCFNGGLCVGGADPDSAYICHCPPGFQGSNCEKRVDRCSLQPCRNGGLCLDLGHALRCRCRAGFAGPRCEHDLDDCAGRACANGGTCVEGGGAHRCSCALGFGGRDCRERADPCAARPCAHGGRCYAHFSGLVCACAPGYMGARCEFPVHPDGASALPAAPPGLRPGDPQRYL
– | – | – | – | – | – | – | – | – | – | 0.063 | 0.028 | > 7 | 3.5 | 4.3 | 2.9 | 1H012 anti-DLL3 trispecific protein (other, also called 1H12; not shown: linker 1808, anti-albumin sdAb, linker 1808, anti-CD3 fragment, His6 1819) EVQLVESGGGLVQPGGSLTLSCVASGSTSSINAMGWYRRAPGKQRELVAGISSDGSKVYVDSVKGRFTISRDNAKNSVYLQMNSLRAEDTAVYYCYYFRTVSGSSMPYWGQGTLVTVSS
